According to patent US20230303701A1 (ABEXXA BIOLOGICS, published 2023):
Read-outs that look alike come from different tables or passages of the source.

Legend:
[1] = target: HLA-E/… (V-0025, HLA-G signal peptide) complex on cells (human) (UniProt P13747); assay: flow cytometry, K562.E +V-0025, column 0 µg/mL +mIgG1
[2] = target: HLA-E on cells that do not present the HLA-G signal peptide (unpulsed K562.E cells; HLA-E positive, HLA-G negative cells; Tap-1 knock-out cells) (human) (UniProt P13747); assay: flow cytometry, K562.E, column 0 µg/mL +mIgG1
[3] = target: V-0025 (…, HLA-G signal peptide)/HLA-E*0103 monomer complex (human); assay: ELISA, V-0025 at 0.25 µg/mL, antibody titrated from 2 µg/mL to 3.8 pg/mL
[4] = target: T1, HLA-G on cell lines that express HLA-G but not HLA-E (human, UniProt P17693 25-338); assay: flow cytometry, IFNγ-stimulated JEG3 HLA-E knock-out
T1 construct: whole, on cells

[5] = target: peptide-empty HLA-E (human); assay: ELISA, ABX0011 in mouse serum, HLA-E 01:03 monomers
[6] = target: V-0034 (…)/HLA-E 01:03 monomer complex (human); assay: ELISA, monomers on a neutravidin plate
[7] = target: V-0043 (…)/HLA-E 01:03 monomer complex (human); assay: ELISA, monomers on a neutravidin plate
[8] = target: V-0037 (…)/HLA-E 01:03 monomer complex (human); assay: ELISA, monomers on a neutravidin plate
[9] = target: T2, V-0025 (…, HLA-G signal peptide)/HLA-E*0103 monomer complex (human); assay: ELISA, V-0025 at 0.25 µg/mL, antibody titrated from 2 µg/mL to 3.8 pg/mL
T2 construct: also called ABI-V-0025; 0025-E 01:03 monomer complex

[10] = target: T2, V-0025 (…, HLA-G signal …); assay: label-free ResoSens instrument; ABX0011 captured by anti-IgG-Fc, monomer complex in serial dilutions from 5 µg/ml; monovalent
[11] = target: T3, P-0550 (…, PODXL2) pulsed on K562 cells expressing HLA-E (human, UniProt P13747 22-358; P61769 21-119); assay: flow cytometry, ABX0011 staining with Fc block, K562.E cells pulsed with 20 ug/mL peptide for 2hr
[12] = target: T4, V-0034 (…) pulsed on K562 cells expressing HLA-E (human, UniProt P13747 22-358; P61769 21-119); assay: as above
[13] = target: T5, HLA-E/… (V-0025, HLA-G signal peptide) complex on cells (human, UniProt P13747 22-358; P61769 21-119); assay: as above
T5 construct: also called K562.E + V-0025; V-0025 peptide pulsed K562 cells expressing HLA-E

[14] = target: V-0038 (…, Hsp60)/HLA-E 01:03 monomer complex (human); assay: ELISA, monomer at 0.25 ug/ml on neutravidin plate (FIG. 9B)
[15] = target: V-0040 (…)/HLA-E 01:03 monomer complex (human); assay: as above
[16] = target: V-0044 (…)/HLA-E 01:03 monomer complex (human); assay: as above
[17] = target: V-0042 (…)/HLA-E 01:03 monomer complex (human); assay: as above
[18] = target: V-0021 (…)/HLA-E 01:03 monomer complex (human); assay: as above
[19] = target: V-0046 (…)/HLA-E 01:03 monomer complex (human); assay: as above
[20] = target: V-0041 (…)/HLA-E 01:03 monomer complex (human); assay: as above
[21] = target: V-0035 (…)/HLA-E 01:03 monomer complex (human); assay: as above
[22] = target: V-0045 (…)/HLA-E 01:03 monomer complex (human); assay: as above
[23] = target: P-0550 (…, PODXL2)/HLA-E 01:03 monomer complex (human); assay: as above
[24] = target: V-0037 (…) pulsed on K562 cells expressing HLA-E (human, UniProt P13747 22-358; P61769 21-119); assay: flow cytometry, peptide-pulsed K562.E cells, antibody molecules per cell
[25] = target: V-0038 (…, Hsp60) pulsed on K562 cells expressing HLA-E (human, UniProt P13747 22-358; P61769 21-119); assay: as above
[26] = target: V-0021 (…) pulsed on K562 cells expressing HLA-E (human, UniProt P13747 22-358; P61769 21-119); assay: as above
[27] = target: V-0041 (…) pulsed on K562 cells expressing HLA-E (human, UniProt P13747 22-358; P61769 21-119); assay: as above
[28] = target: V-0042 (…) pulsed on K562 cells expressing HLA-E (human, UniProt P13747 22-358; P61769 21-119); assay: as above
[29] = target: V-0045 (…) pulsed on K562 cells expressing HLA-E (human, UniProt P13747 22-358; P61769 21-119); assay: as above
[30] = target: V-0043 (…) pulsed on K562 cells expressing HLA-E (human, UniProt P13747 22-358; P61769 21-119); assay: as above
[31] = target: V-0046 (…) pulsed on K562 cells expressing HLA-E (human, UniProt P13747 22-358; P61769 21-119); assay: as above
[32] = target: T3, P-0550 (…, PODXL2) pulsed on K562 cells …; assay: as above
[33] = target: T4, V-0034 (…) pulsed on K562 cells …; assay: as above
[34] = target: V-0044 (…) pulsed on K562 cells expressing HLA-E (human, UniProt P13747 22-358; P61769 21-119); assay: as above
[35] = target: V-0035 (…) pulsed on K562 cells expressing HLA-E (human, UniProt P13747 22-358; P61769 21-119); assay: as above
[36] = target: V-0040 (…) pulsed on K562 cells expressing HLA-E (human, UniProt P13747 22-358; P61769 21-119); assay: as above
[37] = target: T1, HLA-G on cell lines that express HLA-G …; assay: flow cytometry, JEG3 stimulated with IFNγ (FIG. 25A of the legend)

HLA-E on cells that do not present the HLA-G signal peptide (unpulsed K562.E cells; HLA-E positive, HLA-G negative cells; Tap-1 knock-out cells) (human), sequence (P13747 22-358): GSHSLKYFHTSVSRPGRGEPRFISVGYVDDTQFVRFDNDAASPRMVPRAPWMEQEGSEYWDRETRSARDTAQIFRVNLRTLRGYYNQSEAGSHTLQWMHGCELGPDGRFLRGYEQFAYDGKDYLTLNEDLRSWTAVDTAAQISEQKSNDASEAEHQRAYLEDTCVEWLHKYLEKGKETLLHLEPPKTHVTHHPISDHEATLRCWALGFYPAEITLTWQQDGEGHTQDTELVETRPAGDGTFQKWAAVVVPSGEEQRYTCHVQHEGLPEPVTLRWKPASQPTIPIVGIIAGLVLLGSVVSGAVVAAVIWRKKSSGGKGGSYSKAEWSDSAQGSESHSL

Work on mIgG1 (antibody) yielded a % of cells in Q3 (HLA-E channel +, Fab-scFv-Fc -) [1] of 0.37 and a % of cells in Q3 (HLA-E channel +, Fab-scFv-Fc -) [2] of 0.39.

anti-HLA-E antibody clone 3D12 showed an EC50 (read off the curve) [3] of 7 ng/mL.

B1: ABX0011 (antibody, V domains shown)
VH: EVQLLESGGGLVQPGGSLRLSCAASGFTFSSYAMSWVRQAPGKGLEWVSTIAYGGGATAYADSVKGRFTISRDNSKNTLYLQMNSLRAEDTAVYYCAKGLSNFDYWGQGTLVTVSS
VL: DIQMTQSPSSLSASVGDRVTITCRASQSISSYLNWYQQKPGKAPKLLIYAASSLQSGVPSRFSGSGSGTDFTLTISSLQPEDFATYYCQQAAAYPSLFGQGTKVEIK
notes: also called ABX-11; R2-C02 as hIgG1
B1: no binding (tested: 1 µg/mL) [4]; no binding (tested: 1 µg/ml) [5]; no binding (tested: 1 ug/ml) [6]. For the same molecule, the binding result [7] was “no binding (tested: 1 ug/ml)”, the binding result [8] was “no binding (tested: 1 ug/ml)” and the “EC50 (read off the curve)” value [9] was ~1 ng/mL. For the same molecule, the Kd [10] was 7.9 nM, the binding result [11] was “no binding (tested: 10 µg/mL)” and the binding result [12] was “no binding (tested: 10 µg/mL)”. For the same molecule, the “EC50 (read off the curve)” value [13] was ~0.05 µg/mL, the binding result [14] was “no binding (tested: 1 ug/ml)” and the binding result [15] was “no binding (tested: 1 ug/ml)”. B1: no binding (tested: 1 ug/ml) [16]; no binding (tested: 1 ug/ml) [17]; no binding (tested: 1 ug/ml) [18]. B1: no binding (tested: 1 ug/ml) [19]; no binding (tested: 1 ug/ml) [20]; no binding (tested: 1 ug/ml) [21]. B1: no binding (tested: 1 ug/ml) [22]; no binding (tested: 1 ug/ml) [23].

B2: ABX0012 (ABX0011 with mouse IgG1) (antibody, V domains shown)
VH: B1 VH
VL: DIQMTQSPSSLSASVGDRVTITCRASQSISSYLNWYQQKPGKAPKLLIYAASSLQSGVPSRFSGSGSGTDFTLTISSLQPEDFATYYCQQAAAYPSLFGQGTKVEIKR
notes: also called ABX012; AB0012
B2: no binding [24]; no binding [25]; no binding [26]. B2: no binding [27]; no binding [28]; no binding [29]. B2: no binding [30]; no binding [31]; no binding [32]. B2: no binding [33]; no binding [34]; no binding [35]. B2: no binding [36]; no binding [37].
